# B1: human sterol O-acyltransferase 1 (ACAT1), full length, C-terminal Flag-tag (enzyme, UniProt P35610 1-550, looked up)
# chain: MVGEEKMSLRNRLSKSRENPEEDEDQRNPAKESLETPSNGRIDIKQLIAKKIKLTAEAEELKPFFMKEVGSHFDDFVTNLIEKSASLDNGGCALTTFSVLEGEKNNHRAKDLRAPPEQGKIFIARRSLLDELLEVDHIRTIYHMFIALLILFILSTLVVDYIDEGRLVLEFSLLSYAFGKFPTVVWTWWIMFLSTFSVPYFLFQHWATGYSKSSHPLIRSLFHGFLFMIFQIGVLGFGPTYVVLAYTLPPASRFIIIFEQIRFVMKAHSFVRENVPRVLNSAKEKSSTVPIPTVNQYLYFLFAPTLIYRDSYPRNPTVRWGYVAMKFAQVFGCFFYVYYIFERLCAPLFRNIKQEPFSARVLVLCVFNSILPGVLILFLTFFAFLHCWLNAFAEMLRFGDRMFYKDWWNSTSYSNYYRTWNVVVHDWLYYYAYKDFLWFFSKRFKSAAMLAVFAVSAVVHEYALAVCLSFFYPVLFVLFMFFGMAFNFIVNDSRKKPIWNVLMWTSLFLGNGVLLCFYSQEWYARQHCPLKNPTFLDYVRPRSWTCRYVF
# Biological target: the molecule itself
# Assay: cryo-EM structure
protein,measurement,value
B1,stoichiometry N,4

# — publication PMC7903523 (Nature, 2020)
